# According to patent US20080118529:
# T1: human fibrin α-chain (148-160) amyloid fragment with Lys157Ala mutation (FP13)
# T1 chain: KRLEVDIDIAIRS
# B1: human factor XII from plasma (Calbiochem, #233490) (protein)
# chain: IPPWEAPKEHKYKAEEHTVVLTVTGEPCHFPFQYHRQLYHKCTHKGRPGPQPWCATTPNFDQDQRWGYCLEPKKVKDHCSKHSPCQKGGTCVNMPSGPHCLCPQHLTGNHCQKEKCFEPQLLRFFHKNEIWYRTEQAAVARCQCKGPDAHCQRLASQACRTNPCLHGGRCLEVEGHRLCHCPVGYTGAFCDVDTKASCYDGRGLSYRGLARTTLSGAPCQPWASEATYRNVTAEQARNWGLGGHAFCRNPDNDIRPWCFVLNRDRLSWEYCDLAQCQTPTQAAPPTPVSPRLHVPLMPAQPAPPKPQPTTRTPPQSQTPGALPAKREQPPSLTRNGPLSCGQRLRKSLSSMTRVVGGLVALRGAHPYIAALYWGHSFCAGSLIAPCWVLTAAHCLQDRPAPEDLTVVLGQERRNHSCEPCQTLAVRSYRLHEAFSPVSYQHDLALLRLQEDADGSCALLSPYVQPVCLPSGAARPSETTLCQVAGWGHQFEGAEEYASFLQEAQVPFLSLERCSAPDVHGSSILPGMLCAGFLEGGTDACQGDSGGPLVCEDQAAERRLTLQGIISWGSGCGDRNKPGVYTDVAYYLAWIREHTVS
# Legend:
# [1] = molecular target: human Aβ(1-40) Dutch type
# [2] = molecular target: T1, human fibrin α-chain (148-160) amyloid …
protein,measurement,setting,value
B1,"activation of factor XII, detected by the conversion of Chromozym-PK upon formation of kallikrein from prekallikrein",[1],"Like kaolin, amyloid-like peptide aggregates of FP13 and Aβ stimulate the activation of factor XII"
same,"auto-activation of purified factor XII, substrate S-2222",[1],All three amyloid-like aggregates are able to induce factor XII auto-activation ... the potency of the Aβ(1-40) E22Q is somewhat lower
same,"activation of factor XII, detected by the conversion of Chromozym-PK upon formation of kallikrein from prekallikrein",[2],"Like kaolin, amyloid-like peptide aggregates of FP13 and Aβ stimulate the activation of factor XII"
